According to patent US20080206220A1, “2031 Oxidoreductase” (F2G LTD, priority 2004, published 2008):

Experiments:
[1] = test system: O=C1C=CCCC1; experiment: purified protein, by the assay type; settings: other: recombinant 2031 OR, 100 mM potassium phosphate buffer pH7.0; pH 7.0
Procedure: Assay plates: Compounds to be tested were dissolved in 100% DMSO (polypropylene vessels), diluted in water and loaded into 384 square well polystyrene plates (10 μl/well). The final DMSO concentration in all assay wells was 5% v/v.
βNADPH (tetrasodium salt)/2-cyclohexen-1-one reagent; Solutions of NADPH (1.2917 mM in 100 mM potassium phosphate buffer, pH7.0) and 2-cyclohexen-1-one (10 mM in 100 mM potassium phosphate buffer, pH7.0) were prepared on the day of the assay and combined in a ratio of 1 part of 2-cyclohexen-1-one solution to 9 parts NADPH solution. Final assay well concentrations for NADPH and 2-cyclohexen-1-one were 465 μM and 400 μM respectively.
For the iscreen, protein was typically diluted to 5 to 11.25 μg/ml in 100 mM potassium phosphate buffer, pH7.0.
Stop reagent: 0.4 M NaOH in water.
To give an increased signal, the screen was carried out using 2-cyclohexen-1-one at 4 times Km. […]
Assays were carried out using Tecan Freedom, Tecan TeMo and PerkinElmer Minitrak robots together with a ThermoLabsystems multidrop 384 and a Tecan Safire automated plate reader. […] Plates were read at 340 nm on a Tecan Safire plate reader and data processed using ‘in-house’ created Excel spreadsheets to convert raw data into percent inhibition data. […]

[2] = test system: Recombinant 2031 OR; experiment: Oxidoreductase assay: NADPH oxidation monitored at 340 nm, 96-well; assay type: biochemical, Aspergillus fumigatus; settings: 500 μM substrate, 1 μg/200 μL 2031 OR, 120 μM NADPH
Procedure: The assay for 2031 OR is based on methods described by Abramovitz & Massey (1976, J. Biol. Chem. 251: 5321-5326) and Stott et al. (1993, J. Biol. Chem. 268: 6097-6106) and is based upon the ability of this enzyme to oxidise the pyridine nucleotides NADH and/or NADPH. […] Conversion of NAD(P)H to NAD(P)^+ can therefore be monitored spectrophotometrically at a wavelength of 340 nm. A similar assay can be employed for all oxidoreductases that use NADH or NADPH as a cofactor.
Assays were carried out in 96-well plates. To each well was added the following; Recombinant 2031 OR (10-1000 ng); 40 μl of 125-2500 μM NADPH; 1 μL 100 mM cyclohexeneone or other substrate, and the volume made up to 200 μL with 0.1 M potassium phosphate pH 7.0. Samples were incubated at room temperature and absorbance measurements were taken at 340 nm every 30 seconds for 10 min. The change in absorbance was expressed as nmoles NADPH oxidised, using the molar extinction coefficient of NADPH and NADH at 340 nm of 6270 (i.e., a 1M solution has an optical density of 6270 at this wavelength).
This is illustrated in FIG. 5. Final concentrations in the assay were as follows: 500 μM substrate, 1 μg/200 μL 2031 OR, 120 μM NADPH.

## 2031 OR enzyme (Aspergillus fumigatus Af293)
[1]
  Km: 100 µM

## O=C1C=CCCC1 [2-cyclohexen-1-one]
[2]
  Reduction of substrates by recombinant 2031 OR (substrate comparison, FIG. 5): better substrate than menadione, duroquinone or N-ethylmaleimide
